Drawing on publication PMC3796484, this text covers other: Ratio (with:without activator) for one substance.

The target of the assay is spliced X-box binding protein (Xbp1s), P17861-2. The assay can be described thus: two-hybrid assay (Gal4 UAS-CAT reporter in transfected cells). Particulars: CAT activity normalized to β-galactosidase internal control; P=.008; parent: est. 3.4; read off a plot.
Chain of spliced X-box binding protein (Xbp1s), P17861-2 (P17861 other isoform, or with tags, fused parts or gaps): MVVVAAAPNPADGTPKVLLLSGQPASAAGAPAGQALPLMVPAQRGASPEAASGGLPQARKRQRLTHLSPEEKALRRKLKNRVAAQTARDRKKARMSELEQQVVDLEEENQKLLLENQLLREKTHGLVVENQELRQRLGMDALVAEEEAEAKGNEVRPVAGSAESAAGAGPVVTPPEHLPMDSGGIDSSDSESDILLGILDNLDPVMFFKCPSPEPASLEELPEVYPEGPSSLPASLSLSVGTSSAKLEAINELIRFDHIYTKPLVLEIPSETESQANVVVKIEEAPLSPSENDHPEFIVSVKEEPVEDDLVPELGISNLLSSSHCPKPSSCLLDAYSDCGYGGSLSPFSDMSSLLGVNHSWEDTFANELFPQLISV

Turning to “Zhangfei linked to the DNA-binding domain of yeast GAL4 (from UniProt Q9NS37) ZF(L/A)”, the other: Ratio (with:without activator) turned out to be 1.
